In US20210338838A1 (UNIVERSITY OF UTAH RESEARCH FOUNDATION, published 2021):

B1: protective CFHT-I62-Y402 (truncated complement factor H ending in SFTL) (other)
chain: EDCNELPPRRNTEILTGSWSDQTYPEGTQAIYKCRPGYRSLGNIIMVCRKGEWVALNPLRKCQKRPCGHPGDTPFGTFTLTGGNVFEYGVKAVYTCNEGYQLLGEINYRECDTDGWTNDIPICEVVKCLPVTAPENGKIVSSAMEPDREYHFGQAVRFVCNSGYKIEGDEEMHCSDDGFWSKEKPKCVEISCKSPDVINGSPISQKIIYKENERFQYKCNMGYEYSERGDAVCTESGWRPLPSCEEKSCDNPYIPNGDYSPLRIKHRTGDEITYQCRNGFYPATRGNTAKCTSTGWIPAPRCTLKPCDYPDIKHGGLYHENMRRPYFPVAVGKYYSYYCDEHFETPSGSYWDHIHCTQDGWSPAVPCLRKCYFPYLENGYNQNYGRKFVQGKSIDVACHPGYALPKAQTTVTCMENGWSPTPRCIRVSFTL
notes: In the Western blot it was expressed in RPE1 cells from pCTM134 and from eCFH/T v4.1; also called CFHT-Protection; native protective CFHT
B2: protective CFH-I62-Y402-E936 (full-length complement factor H) (other)
chain: EDCNELPPRRNTEILTGSWSDQTYPEGTQAIYKCRPGYRSLGNIIMVCRKGEWVALNPLRKCQKRPCGHPGDTPFGTFTLTGGNVFEYGVKAVYTCNEGYQLLGEINYRECDTDGWTNDIPICEVVKCLPVTAPENGKIVSSAMEPDREYHFGQAVRFVCNSGYKIEGDEEMHCSDDGFWSKEKPKCVEISCKSPDVINGSPISQKIIYKENERFQYKCNMGYEYSERGDAVCTESGWRPLPSCEEKSCDNPYIPNGDYSPLRIKHRTGDEITYQCRNGFYPATRGNTAKCTSTGWIPAPRCTLKPCDYPDIKHGGLYHENMRRPYFPVAVGKYYSYYCDEHFETPSGSYWDHIHCTQDGWSPAVPCLRKCYFPYLENGYNQNYGRKFVQGKSIDVACHPGYALPKAQTTVTCMENGWSPTPRCIRVKTCSKSSIDIENGFISESQYTYALKEKAKYQCKLGYVTADGETSGSITCGKDGWSAQPTCIKSCDIPVFMNARTKNDFTWFKLNDTLDYECHDGYESNTGSTTGSIVCGYNGWSDLPICYERECELPKIDVHLVPDRKKDQYKVGEVLKFSCKPGFTIVGPNSVQCYHFGLSPDLPICKEQVQSCGPPPELLNGNVKEKTKEEYGHSEVVEYYCNPRFLMKGPNKIQCVDGEWTTLPVCIVEESTCGDIPELEHGWAQLSSPPYYYGDSVEFNCSESFTMIGHRSITCIHGVWTQLPQCVAIDKLKKCKSSNLIILEEHLKNKKEFDHNSNIRYRCRGKEGWIHTVCINGRWDPEVNCSMAQIQLCPPPPQIPNSHNMTTTLNYRDGEKVSVLCQENYLIQEGEEITCKDGRWQSIPLCVEKIPCSQPPQIEHGTINSSRSSQESYAHGTKLSYTCEGGFRISEENETTCYMGKWSSPPQCEGLPCKSPPEISHGVVAHMSDSYQYGEEVTYKCFEGFGIDGPAIAKCLGEKWSHPPSCIKTDCLSLPSFENAIPMGEKKDVYKAGEQVTYTCATYYKMDGASNVTCINSRWTGRPTCRDTSCVNPPTVQNAYIVSRQMSKYPSGERVRYQCRSPYEMFGDEEVMCLNGNWTEPPQCKDSTGKCGPPPPIDNGDITSFPLSVYAPASSVEYQCQNLYQLEGNKRITCRNGQWSEPPKCLHPCVISREIMENYNIALRWTAKQKLYSRTGESVEFVCKRGYRLSSRSHTLRTTCWDGKLEYPTCAKR
notes: In the Western blot it was expressed in RPE1 cells from plasmid pCTM133; also called CFH-Protection
B3: monomeric C-reactive protein (CRP) (other, UniProt P02741 19-224, looked up)
chain: QTDMSRKAFVFPKESDTSYVSLKAPLTKPLKAFTVCLHFYTELSSTRGYSIFSYATKRQDNEILIFWSKDIGYSFTVGGSEILFEVPEVTVAPVHICTSWESASGIVEFWVDGKPRVRKSLKKGYTVGAEASIILGQEQDSFGGNFEGSQSLVGDIGNVNMWDFVLSPDEINTIYLGGPFSPNVLNWRALKYEVQGEVFTKPQLWP

How the values were obtained:
[1] = target: T1, MDA-modified LDL particles; experiment: relative MDA-binding assay, percent of CFH-Risk, detection antibody AbCam OX-24 (#Ab112197)
T1 construct: Not a plain protein; also called MDA-LDL; MDA adducts

[2] = target: T1, MDA-modified LDL particles; experiment: plate-based binding assay, His-tagged recombinant protein from HEK293 cells
[3] = target: B3; experiment: relative CRP-binding assay, percent of CFH-Risk, detection antibody AbCam OX-24 (#Ab112197)
[4] = target: B3; experiment: relative CRP-binding assay, detection antibody AbCam OX-24 (#Ab112197)
[5] = target: B3; experiment: plate-based CRP binding assay, against protective CFH
[6] = target: T1, MDA-modified LDL particles; experiment: relative MDA-binding assay, detection antibody AbCam OX-24 (#Ab112197)
[7] = target: B3; experiment: rank of binding affinity among six proteins, plate-based binding assays
[8] = target: T1, MDA-modified LDL particles; experiment: as above
[9] = target: T2, eCFHT-SK (engineered truncated CFH, I62-Y402, ending in SKSFTL) (human, UniProt P08603 19-445); experiment: plate-based binding assay, His-tagged recombinant protein from HEK293 cells
T2 construct: Non-natural variant of human CFHT with SK inserted before the C-terminal SFTL; In the Western blot it was expressed from eCFH/T v4.2 in RPE1 cells; also called protective eCFHT-SK; truncated product of eCFH/T v4.2

[10] = target: T3, eCFHT-SE (engineered truncated CFH, I62-Y402, ending in SESFTL) (human, UniProt P08603 19-445); experiment: as above
T3 construct: The chain is built from the first 445 residues shared by CFH and CFHT, less the 18-residue signal peptide, plus the printed C-terminal SESFTL; His-tagged and purified from HEK293 cells; also called protective eCFHT-SE; truncated product of eCFH/T v4.3

[11] = target: B2; experiment: as above
[12] = target: B1; experiment: as above

T3 sequence (P08603 other isoform, or with tags, fused parts or gaps): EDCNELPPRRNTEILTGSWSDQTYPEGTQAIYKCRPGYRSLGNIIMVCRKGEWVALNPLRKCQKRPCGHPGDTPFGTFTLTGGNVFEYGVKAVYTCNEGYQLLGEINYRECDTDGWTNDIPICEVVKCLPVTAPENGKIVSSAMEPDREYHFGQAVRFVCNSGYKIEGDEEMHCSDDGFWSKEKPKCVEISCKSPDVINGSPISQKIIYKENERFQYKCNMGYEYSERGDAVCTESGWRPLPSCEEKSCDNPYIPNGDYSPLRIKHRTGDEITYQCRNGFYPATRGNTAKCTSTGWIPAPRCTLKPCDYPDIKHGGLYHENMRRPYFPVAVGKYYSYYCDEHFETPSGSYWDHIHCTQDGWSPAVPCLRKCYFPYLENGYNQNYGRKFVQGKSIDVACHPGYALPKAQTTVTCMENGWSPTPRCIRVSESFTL
T2 sequence (P08603 other isoform, or with tags, fused parts or gaps): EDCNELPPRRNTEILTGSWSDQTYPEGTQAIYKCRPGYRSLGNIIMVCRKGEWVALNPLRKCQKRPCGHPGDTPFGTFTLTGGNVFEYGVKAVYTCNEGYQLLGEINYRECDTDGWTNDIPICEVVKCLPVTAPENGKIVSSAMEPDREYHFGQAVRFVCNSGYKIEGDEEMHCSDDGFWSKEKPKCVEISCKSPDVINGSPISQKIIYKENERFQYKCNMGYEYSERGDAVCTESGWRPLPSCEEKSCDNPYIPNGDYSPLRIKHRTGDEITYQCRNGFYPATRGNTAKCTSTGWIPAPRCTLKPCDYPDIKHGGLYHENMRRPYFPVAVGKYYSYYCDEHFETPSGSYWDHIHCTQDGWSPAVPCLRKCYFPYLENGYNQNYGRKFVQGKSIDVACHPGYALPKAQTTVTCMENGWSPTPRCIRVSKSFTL

| Binder | % FH-Risk [1] [%] | Kd [2] [nM] | % FH-Risk [3] [%] | Binding Potential [4] | fold better binding affinity than CFH [5] [fold] | Binding Potential [6] | Binding Affinity Rank (1 best to 6 worst) [7] [rank] | Binding Affinity Rank (1 best to 6 worst) [8] [rank] | Kd [9] [nM] | Kd [10] [nM] | Kd [11] [nM] | Kd [12] [nM] |
| --- | --- | --- | --- | --- | --- | --- | --- | --- | --- | --- | --- | --- |
| B1 | 107 | 219 | 5900 | 87 | ~10 | 32 | 2 | 1 | – | – | – | – |
| B2 | 251 | 222 | 656 | 10 | – | 75 | 4 | 2 | – | – | – | – |
| B3 | – | – | – | – | – | – | – | – | 13.7 | 25.3 | 127 | 14.3 |
